Results: the supplement of paper PMC10598134
± gives the standard deviation.

Test: collision cross section of modified peptide (TIMS, N2, iRT-aligned); higher = larger / more extended gas-phase ion
Method in brief: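 On a timsTOF Pro/HT (dda-PASEF, nitrogen, ~2.4 mbar), synthetic peptide pools were analysed after a 120-min nanoflow C18 separation at 60 °C and identified in MaxQuant. Three reference ions served for 1/K0 calibration, with run-wise alignment to the median iRT peptide deviation. Collision cross section comes from the Mason-Schamp equation, using the most abundant feature per charge state averaged over 1–3 technical replicates.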

[1] = charge state: 2, modification: Formyl
[2] = charge state: 2, modification: Succinyl
[3] = charge state: 2, modification: Dimethyl (K)
[4] = charge state: 3, modification: Dimethyl (K)
[5] = charge state: 2, modification: Hydroxyproline
[6] = charge state: 2, modification: Butyryl
[7] = charge state: 2, modification: Propionyl
[8] = charge state: 2, modification: Crotonyl
[9] = charge state: 3, modification: Crotonyl
[10] = charge state: 3, modification: Hydroxyproline
[11] = charge state: 2, modification: GlyGly (K)
[12] = charge state: 3, modification: GlyGly (K)
[13] = charge state: 2, modification: Malonyl
[14] = charge state: 2, modification: HexNAc (ST)
[15] = charge state: 2, modification: Acetyl (K)

Q: With LTEKELAEAASK [_LTEK(Formyl)ELAEAASK_] as the sequence, how does the collision cross section [1] read?
A: 382.92 ± 0.9 Å²

Q: Which collision cross section [2] does the source give for TTEETSKPK [_TTEETSK(Succinyl)PK_] here?
A: 347.17 ± 0.86 Å²

Q: With “VLTANSNPSSPSAAKR [_VLTANSNPSSPSAAK(Dimethyl (K))R_]” as the sequence, how does the collision cross section [3] read?
A: 441.07 ± 1.1 Å²

Q: What about the collision cross section [4] of the same sequence?
A: 518.06 ± 0.76 Å²

Q: Which collision cross section [5] does the source give for “GDIGETGVPGAEGPR [_GDIGETGVPGAEGP(Hydroxyproline)R_]” here?
A: 384.38 ± 0.27 Å²

Q: With GAEKTEVAEPR [_GAEK(Butyryl)TEVAEPR_] as the sequence, how does the collision cross section [6] read?
A: 380.97 ± 1.3 Å²

Q: With VETTVTSLKTK [_VETTVTSLK(Propionyl)TK_] as the sequence, how does the collision cross section [7] read?
A: 382.91 ± 0.92 Å²

Q: Which collision cross section [2] does the source give for “SNEEGSEEKGPEVR [_SNEEGSEEK(Succinyl)GPEVR_]” here?
A: 403.42 ± 0.55 Å²

Q: With “SLEEEGAAHSGKR [_SLEEEGAAHSGK(Crotonyl)R_]” as the sequence, how does the collision cross section [8] read?
A: 420.35 ± 1.1 Å²

Q: What about the collision cross section [9] of the same sequence?
A: 486.66 ± 11 Å²

Q: With “VSPASSVDSNIPSSQGYKK [_VSPASSVDSNIPSSQGYK(Biotin)K_]” as the sequence, how does the collision cross section (charge state: 2, modification: Biotin) read?
A: 474.43 Å²

Q: What about the collision cross section (charge state: 3, modification: Biotin) of the same sequence?
A: 539.94 ± 1.6 Å²

Q: With “GEKGDPGLIGPK [_GEKGDP(Hydroxyproline)GLIGPK_]” as the sequence, how does the collision cross section [5] read?
A: 375.69 ± 1.9 Å²

Q: What about the collision cross section [10] of the same sequence?
A: 437 ± 1.3 Å²

Q: With “GSLGAQKLANTCFNEIEK [_GSLGAQK(GlyGly (K))LANTCFNEIEK_]” as the sequence, how does the collision cross section [11] read?
A: 500.39 ± 1.8 Å²

Q: What about the collision cross section [12] of the same sequence?
A: 528.63 ± 18 Å²

Q: With LLEEEDSKLK [_LLEEEDSK(Malonyl)LK_] as the sequence, how does the collision cross section [13] read?
A: 379.46 ± 1.1 Å²

Q: Which collision cross section [2] does the source give for LDHLAEKFR [_LDHLAEK(Succinyl)FR_] here?
A: 369.4 ± 0.74 Å²

Q: What about the collision cross section (charge state: 3, modification: Succinyl) of the same sequence?
A: 444.17 ± 3.4 Å²

Q: Which results are given for “ITESVAETAQTIKK [_ITESVAET(HexNAc (ST))AQTIKK_]”?
A: collision cross section [14]: 456.71 ± 0.56 Å²; collision cross section (charge state: 3, modification: HexNAc (ST)): 499.78 ± 0.18 Å²

Q: With “GERGPPGPPGK [_GERGPPGPP(Hydroxyproline)GK_]” as the sequence, how does the collision cross section [5] read?
A: 326.03 ± 0.88 Å²

Q: What about the collision cross section [10] of the same sequence?
A: 407.49 ± 18 Å²

Q: Which collision cross section (charge state: 2, modification: Methyl (K)) does the source give for “SPSDSGYSYETIGKTTK [_SPSDSGYSYETIGK(Methyl (K))TTK_]” here?
A: 466.86 ± 1.2 Å²

Q: What about the collision cross section (charge state: 3, modification: Methyl (K)) of the same sequence?
A: 512.24 ± 3.8 Å²

Q: Which collision cross section [1] does the source give for “PASGAGAGAGAGKR [_PASGAGAGAGAGK(Formyl)R_]” here?
A: 349.96 ± 1.4 Å²

Q: And the collision cross section (charge state: 3, modification: Formyl)?
A: 453.33 ± 1.2 Å²

Q: For PAVTAAPK [_PAVT(HexNAc (ST))AAPK_], which collision cross section [14] is on record?
A: 333.39 ± 1 Å²

Q: For “GPPGPAGPSGESR [_GPP(Hydroxyproline)GPAGPSGESR_]”, which collision cross section [5] is on record?
A: 344.62 ± 1.9 Å²

Q: For “SRGAIISQYYNR [_SR(Citrullination (R))GAIISQYYNR_]”, which collision cross section (charge state: 2, modification: Citrullination (R)) is on record?
A: 408.9 ± 1.3 Å²

Q: And the collision cross section (charge state: 3, modification: Citrullination (R))?
A: 483.76 Å²

Q: With “GEVGAGAGPGAQAGPSAKR [_GEVGAGAGPGAQAGPSAK(Propionyl)R_]” as the sequence, how does the collision cross section [7] read?
A: 422.82 ± 0.97 Å²

Q: And the collision cross section (charge state: 3, modification: Propionyl)?
A: 482.16 ± 0.88 Å²

Q: For “AAINQKLIETGER [_AAINQK(Butyryl)LIETGER_]”, which collision cross section [6] is on record?
A: 410.95 ± 1.7 Å²

Q: For “VLTANSNPSSPSAAKR [_VLTANSNPSSPSAAK(Crotonyl)R_]”, which collision cross section [8] is on record?
A: 433.68 ± 1.1 Å²

Q: And the collision cross section [9]?
A: 528.16 ± 1.7 Å²

Q: With VFSIISSEKELK [_VFSIISSEK(Butyryl)ELK_] as the sequence, how does the collision cross section [6] read?
A: 413.27 ± 0.78 Å²

Q: With ATAVVDGAFK [_AT(HexNAc (ST))AVVDGAFK_] as the sequence, how does the collision cross section [14] read?
A: 362.47 ± 0.64 Å²

Q: With “ITESVAETAQTIKK [_ITESVAETAQTIK(Acetyl (K))K_]” as the sequence, how does the collision cross section [15] read?
A: 418.11 ± 1.3 Å²

Q: What about the collision cross section (charge state: 3, modification: Acetyl (K)) of the same sequence?
A: 510.01 ± 1.7 Å²

Q: With “TVSKVDDFLANEAK [_TVSK(Dimethyl (K))VDDFLANEAK_]” as the sequence, how does the collision cross section [3] read?
A: 415.63 Å²

Q: What about the collision cross section [4] of the same sequence?
A: 482.42 ± 2.9 Å²

Q: For “VEPGSLESSPGLGRGR [_VEPGSLESSPGLGR(Methyl (R))GR_]”, which collision cross section (charge state: 3, modification: Methyl (R)) is on record?
A: 499.14 ± 2.2 Å²

Q: With “VNVEAPDVNLEGLGGKLK [_VNVEAPDVNLEGLGGK(Formyl)LK_]” as the sequence, how does the collision cross section [1] read?
A: 459.19 ± 1.2 Å²

Q: Which collision cross section [2] does the source give for LQLEIDQKK [_LQLEIDQK(Succinyl)K_] here?
A: 370.18 ± 1.1 Å²

Q: With “IVFSGNLFQHQEDSKK [_IVFSGNLFQHQEDSK(hydroxyisobutyryl)K_]” as the sequence, how does the collision cross section (charge state: 2, modification: hydroxyisobutyryl) read?
A: 503.66 ± 0.71 Å²

Q: What about the collision cross section (charge state: 3, modification: hydroxyisobutyryl) of the same sequence?
A: 534.25 ± 1.1 Å²

Q: For “LLIVSTTPYSEKDTK [_LLIVSTTPYSEK(GlyGly (K))DTK_]”, which collision cross section [11] is on record?
A: 461.81 ± 0.94 Å²

Q: And the collision cross section [12]?
A: 515.54 ± 1.1 Å²

Q: Which collision cross section (charge state: 2, modification: Glutarylation) does the source give for “LLEEEDSKLK [_LLEEEDSK(Gluratylation)LK_]” here?
A: 387.79 ± 0.61 Å²

Q: Which collision cross section [13] does the source give for LEKTIDDLEEK [_LEK(Malonyl)TIDDLEEK_] here?
A: 405.85 ± 0.59 Å²

Q: For ALLQAKASGK [_ALLQAK(Acetyl (K))ASGK_], which collision cross section [15] is on record?
A: 343.77 ± 0.2 Å²
